Experimental data: patent publication US20230416365A1 (Hoffmann-La Roche, published 2023)

How the values were obtained:
[1] = biological target: T1, human CEA (CEACAM5), form in the assay not stated (human, UniProt P06731 35-685, limits assumed); assay: SPR
T1 sequence: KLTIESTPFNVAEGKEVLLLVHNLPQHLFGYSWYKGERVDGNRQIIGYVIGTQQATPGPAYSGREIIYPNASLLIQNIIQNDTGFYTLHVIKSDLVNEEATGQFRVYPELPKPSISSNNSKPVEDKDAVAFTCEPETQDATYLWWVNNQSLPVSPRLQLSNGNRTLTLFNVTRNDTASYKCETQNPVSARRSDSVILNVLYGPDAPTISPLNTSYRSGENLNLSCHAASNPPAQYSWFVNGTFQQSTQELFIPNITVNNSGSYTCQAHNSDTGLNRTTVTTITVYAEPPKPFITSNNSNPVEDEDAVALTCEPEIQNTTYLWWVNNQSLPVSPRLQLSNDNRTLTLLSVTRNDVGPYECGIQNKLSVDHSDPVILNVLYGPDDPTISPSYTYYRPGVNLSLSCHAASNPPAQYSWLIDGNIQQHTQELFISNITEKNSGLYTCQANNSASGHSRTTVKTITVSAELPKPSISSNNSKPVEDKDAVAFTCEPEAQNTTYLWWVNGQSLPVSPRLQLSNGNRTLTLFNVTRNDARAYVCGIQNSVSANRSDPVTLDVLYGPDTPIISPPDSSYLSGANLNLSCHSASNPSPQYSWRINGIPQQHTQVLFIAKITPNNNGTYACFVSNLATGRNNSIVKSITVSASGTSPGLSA

[2] = biological target: T2, human FAP on 3T3-huFAP cells (clone 19) (human, UniProt Q12884 1-760); assay: flow cytometry on 3T3-huFAP cells, median fluorescence intensity
[3] = biological target: T3, recombinant CD79b-His (Sinobiological #29750-H08H) (UniProt P40259 29-159); assay: SPR, Biacore T200, CD79b-His captured by anti-penta-His on CM5, bispecific as analyte
T3 construct: bought; whole entry named, limits unknown; also called soluble recombinant CD79b-His
T3 sequence (looked up): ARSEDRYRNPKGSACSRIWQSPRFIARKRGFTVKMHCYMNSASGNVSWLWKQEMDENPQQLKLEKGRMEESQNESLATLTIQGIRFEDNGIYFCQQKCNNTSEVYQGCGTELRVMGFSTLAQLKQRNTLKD

[4] = biological target: T4, human HER3 on T-47D cells (human, UniProt P21860 20-1342); assay: flow cytometry on T-47D cells, PE anti-human secondary antibody, MFI
T4 construct: also called ErbB3

[5] = biological target: T5, human CD28 on CHO cells (parental cell line CHO-k1 ATCC #CCL-61, modified to stably overexpress human CD28) (human, UniProt P10747 19-220); assay: flow cytometry on CHO-k1 cells expressing human CD28, PE anti-human secondary antibody, MFI
T5 construct: also called hu CD28; CHO-hCD28

[6] = biological target: T5, human CD28 on CHO cells (parental cell …); assay: as above; remark: listed apart in the source
[7] = biological target: T5, human CD28 on CHO cells (parental cell …); assay: flow cytometry on CHO-hCD28 cells
[8] = biological target: T6, human GPRC5D on CHO-hGPRC5D cells (human, UniProt Q9NZD1 1-345); assay: flow cytometry on CHO huGPRC5D cells, AF488 anti-human IgG Fc secondary
T6 construct: also called CHO huGPRC5D L2

[9] = biological target: T2, human FAP on 3T3-huFAP cells (clone 19); assay: flow cytometry on 3T3-huFAP cells, PE anti-human secondary antibody, median fluorescence intensity

B1: humanized CEA antibody A5H1EL1D (format in the assay not stated) (antibody, V domains shown)
VH: EVQLLESGGGLVQPGGSLRLSCAASGFTFTDYYMNWVRQAPGKGLEWLGFIGNKANAYTTEYSASVKGRFTISRDKSKNTLYLQMNSLRAEDTATYYCTRDRGLRFYFDYWGQGTTVTVSS
VL: EIVLTQSPATLSLSPGERATLSCRASSSVTYIHWYQQKPGQAPRSWIYATSNLASGIPARFSGSGSGTDFTLTISSLEPEDFAVYYCQHWSSKPPTFGQGTKLEIK
notes: heavy chain with VH variant 3-23A5-1E and Ckappa light chain with VL variant A5-L1D; also called huA5B7
Kd [1]: ~2.5 nM

B2: FAP-CD28 1+4 (bispecific antibody, human IgG1, kappa, L234A L235A)
CD28(SA) light chain: not shown
heavy chain CD28(SA) VHCH-VHCH - Fc knob - FAP(4B9) VH: not shown
heavy chain CD28(SA) VHCH-VHCH - Fc hole - FAP(4B9) VL: QVQLVQSGAEVKKPGASVKVSCKASGYTFTSYYIHWVRQAPGQGLEWIGCIYPGNVNTNYNEKFKDRATLTVDTSISTAYMELSRLRSDDTAVYFCTRSHYGLDWNFDVWGQGTTVTVSSASTKGPSVFPLAPSSKSTSGGTAALGCLVKDYFPEPVTVSWNSGALTSGVHTFPAVLQSSGLYSLSSVVTVPSSSLGTQTYICNVNHKPSNTKVDKKVEPKSCDGGGGSGGGGSQVQLVQSGAEVKKPGASVKVSCKASGYTFTSYYIHWVRQAPGQGLEWIGCIYPGNVNTNYNEKFKDRATLTVDTSISTAYMELSRLRSDDTAVYFCTRSHYGLDWNFDVWGQGTTVTVSSASTKGPSVFPLAPSSKSTSGGTAALGCLVKDYFPEPVTVSWNSGALTSGVHTFPAVLQSSGLYSLSSVVTVPSSSLGTQTYICNVNHKPSNTKVDKKVEPKSCDKTHTCPPCPAPEAAGGPSVFLFPPKPKDTLMISRTPEVTCVVVDVSHEDPEVKFNWYVDGVEVHNAKTKPREEQYNSTYRVVSVLTVLHQDWLNGKEYKCKVSNKALGAPIEKTISKAKGQPREPQVCTLPPSRDELTKNQVSLSCAVKGFYPSDIAVEWESNGQPENNYKTTPPVLDSDGSFFLVSKLTVDKSRWQQGNVFSCSVMHEALHNHYTQKSLSLSPGGGGGSGGGGSGGGGSGGGGSEIVLTQSPGTLSLSPGERATLSCRASQSVTSSYLAWYQQKPGQAPRLLINVGSRRATGIPDRFSGSGSGTDFTLTISRLEPEDFAVYYCQQGIMLPPTFGQGTKVEIK
notes: tetravalent for CD28, monovalent for FAP; also called Molecule D; FAP(4B9)-CD28(SA) 1+4
binding result [2]: binds

B3: CD79b (huMA79b.v28)-CD28 (SA_v15) 1+1 (Molecule F of Example 18; 18F) (bispecific antibody, human IgG1, kappa, L234A L235A)
heavy 1: not shown
light 1: not shown
heavy 2: DIQLTQSPSSLSASVGDRVTITCKASQSVDYEGDSFLNWYQQKPGKAPKLLIYAASNLESGVPSRFSGSGSGTDFTLTISSLQPEDFATYYCQQSNEDPLTFGQGTKVEIKSSASTKGPSVFPLAPSSKSTSGGTAALGCLVKDYFPEPVTVSWNSGALTSGVHTFPAVLQSSGLYSLSSVVTVPSSSLGTQTYICNVNHKPSNTKVDKKVEPKSCDKTHTCPPCPAPEAAGGPSVFLFPPKPKDTLMISRTPEVTCVVVDVSHEDPEVKFNWYVDGVEVHNAKTKPREEQYNSTYRVVSVLTVLHQDWLNGKEYKCKVSNKALGAPIEKTISKAKGQPREPQVCTLPPSRDELTKNQVSLSCAVKGFYPSDIAVEWESNGQPENNYKTTPPVLDSDGSFFLVSKLTVDKSRWQQGNVFSCSVMHEALHNHYTQKSLSLSP
light 2: EVQLVESGGGLVQPGGSLRLSCAASGYTFSSYWIEWVRQAPGKGLEWIGEILPGGGDTNYNEIFKGRATFSADTSKNTAYLQMNSLRAEDTAVYYCTRRVPIRLDYWGQGTLVTVSSASVAAPSVFIFPPSDEQLKSGTASVVCLLNNFYPREAKVQWKVDNALQSGNSQESVTEQDSKDSTYSLSSTLTLSKADYEKHKVYACEVTHQGLSSPVTKSFNRGEC
notes: huIgG1 PG-LALA CrossFab; also called P1AE9039; CD79b-CD28
Kd [3]: 76 nM | koff [3]: 0.0195 s⁻¹ | kon [3]: 257000 M⁻¹ s⁻¹

B4: murine CEA antibody A5B7 (parental) (antibody, V domains shown)
VH: EVKLVESGGGLVQPGGSLRLSCATSGFTFTDYYMNWVRQPPGKALEWLGFIGNKANGYTTEYSASVKGRFTISRDKSQSILYLQMNTLRAEDSATYYCTRDRGLRFYFDYWGQGTTLTVSS
VL: QTVLSQSPAILSASPGEKVTMTCRASSSVTYIHWYQQKPGSSPKSWIYATSNLASGVPARFSGSGSGTSYSLTISRVEAEDAATYYCQHWSSKPPTFGGGTKLEIK
notes: also called parental murine A5B7 antibody; parental chimeric antibody
Kd [1]: ~0.8 nM

B5: HER3(lumretuzumab)-CD28 (SA_Variant 15) 1+1 format (Molecule 14B) (bispecific antibody, human IgG1, kappa, L234A L235A)
heavy 1: not shown
light 1: not shown
heavy 2: DIVMTQSPDSLAVSLGERATINCKSSQSVLNSGNQKNYLTWYQQKPGQPPKLLIYWASTRESGVPDRFSGSGSGTDFTLTISSLQAEDVAVYYCQSDYSYPYTFGQGTKLEIKSSASTKGPSVFPLAPSSKSTSGGTAALGCLVKDYFPEPVTVSWNSGALTSGVHTFPAVLQSSGLYSLSSVVTVPSSSLGTQTYICNVNHKPSNTKVDKKVEPKSCDKTHTCPPCPAPEAAGGPSVFLFPPKPKDTLMISRTPEVTCVVVDVSHEDPEVKFNWYVDGVEVHNAKTKPREEQYNSTYRVVSVLTVLHQDWLNGKEYKCKVSNKALGAPIEKTISKAKGQPREPQVCTLPPSRDELTKNQVSLSCAVKGFYPSDIAVEWESNGQPENNYKTTPPVLDSDGSFFLVSKLTVDKSRWQQGNVFSCSVMHEALHNHYTQKSLSLSP
light 2: QVQLVQSGAEVKKPGASVKVSCKASGYTFRSSYISWVRQAPGQGLEWMGWIYAGTGSPSYNQKLQGRVTMTTDTSTSTAYMELRSLRSDDTAVYYCARHRDYYSNSLTYWGQGTLVTVSSASVAAPSVFIFPPSDEQLKSGTASVVCLLNNFYPREAKVQWKVDNALQSGNSQESVTEQDSKDSTYSLSSTLTLSKADYEKHKVYACEVTHQGLSSPVTKSFNRGEC
notes: huIgG1 PG-LALA CrossFab; also called P1AF0151; HER3-CD28
EC50 (read off the curve) [4]: ~1 nM | binding result [5]: binds

B6: EpCAM (MT201)-CD28 (SA_Variant 15) 1+1 format (Molecule 14A) (bispecific antibody, human IgG1, kappa, L234A L235A)
heavy 1: not shown
light 1: QVQLVQSGAEVKKPGASVKVSCKASGYTFTSYYIHWVRQAPGQGLEWIGSIYPGNVQTNYNEKFKDRATLTVDTSISTAYMELSRLRSDDTAVYFCTRSHYGLDWNFDVWGQGTTVTVSSASVAAPSVFIFPPSDEQLKSGTASVVCLLNNFYPREAKVQWKVDNALQSGNSQESVTEQDSKDSTYSLSSTLTLSKADYEKHKVYACEVTHQGLSSPVTKSFNRGEC
heavy 2: not shown
light 2: ELQMTQSPSSLSASVGDRVTITCRTSQSISSYLNWYQQKPGQPPKLLIYWASTRESGVPDRFSGSGSGTDFTLTISSLQPEDSATYYCQQSYDIPYTFGQGTKLEIKRTVAAPSVFIFPPSDRKLKSGTASVVCLLNNFYPREAKVQWKVDNALQSGNSQESVTEQDSKDSTYSLSSTLTLSKADYEKHKVYACEVTHQGLSSPVTKSFNRGEC
notes: huIgG1 PG-LALA CrossFab; also called P1AE9051; EpCAM-CD28
EC50 (read off the curve) [6]: ~8 nM

B7: GPRC5D (5E11)-CD28 (SA_Variant 15) 1+1 format (Molecule 16A) (bispecific antibody, human IgG1, kappa, L234A L235A)
heavy 1: not shown
light 1: QVQLVQSGAEVKKPGASVKVSCKASGYTFTSYYIHWVRQAPGQGLEWIGSIYPGNVQTNYNEKFKDRATLTVDTSISTAYMELSRLRSDDTAVYFCTRSHYGLDWNFDVWGQGTTVTVSSASVAAPSVFIFPPSDEQLKSGTASVVCLLNNFYPREAKVQWKVDNALQSGNSQESVTEQDSKDSTYSLSSTLTLSKADYEKHKVYACEVTHQGLSSPVTKSFNRGEC
heavy 2: EVQLLESGGGLVQPGGSLRLSCAASGFTFSKYAMAWVRQAPGKGLEWVASISTGGVNTYYADSVKGRFTISRDNSKNTLYLQMNSLRAEDTAVYYCATHTGDYFDYWGQGTMVTVSSASTKGPSVFPLAPSSKSTSGGTAALGCLVEDYFPEPVTVSWNSGALTSGVHTFPAVLQSSGLYSLSSVVTVPSSSLGTQTYICNVNHKPSNTKVDEKVEPKSCDKTHTCPPCPAPEAAGGPSVFLFPPKPKDTLMISRTPEVTCVVVDVSHEDPEVKFNWYVDGVEVHNAKTKPREEQYNSTYRVVSVLTVLHQDWLNGKEYKCKVSNKALGAPIEKTISKAKGQPREPQVCTLPPSRDELTKNQVSLSCAVKGFYPSDIAVEWESNGQPENNYKTTPPVLDSDGSFFLVSKLTVDKSRWQQGNVFSCSVMHEALHNHYTQKSLSLSP
light 2: EIVLTQSPGTLSLSPGERATLSCRASQSVSISGINLMNWYQQKPGQQPKLLIYHASILASGIPDRFSGSGSGTDFTLTISRLEPEDFAVYYCQQTRESPLTFGQGTRLEIKRTVAAPSVFIFPPSDRKLKSGTASVVCLLNNFYPREAKVQWKVDNALQSGNSQESVTEQDSKDSTYSLSSTLTLSKADYEKHKVYACEVTHQGLSSPVTKSFNRGEC
notes: huIgG1 PG-LALA CrossFab; also called P1AF1272
EC50 [7]: 4.7 to 5.2 nM | binding result [8]: binds

B8: FAP-CD28SA 2+2 (P1AD4493) (bispecific antibody, human IgG1, kappa, L234A L235A)
CD28(SA) light chain VL-CL RK: not shown
heavy chain CD28(SA) VHCH1 EE - Fc PGLALA - FAP(4B9) VHCL: not shown
FAP(4B9) VLCH1: EIVLTQSPGTLSLSPGERATLSCRASQSVTSSYLAWYQQKPGQAPRLLINVGSRRATGIPDRFSGSGSGTDFTLTISRLEPEDFAVYYCQQGIMLPPTFGQGTKVEIKSSASTKGPSVFPLAPSSKSTSGGTAALGCLVKDYFPEPVTVSWNSGALTSGVHTFPAVLQSSGLYSLSSVVTVPSSSLGTQTYICNVNHKPSNTKVDKKVEPKSCD
notes: bivalent for CD28 and bivalent for FAP; copy numbers follow from the 2+2 format; also called Molecule F; FAP(4B9)-CD28(SA) 2+2
EC50 (read off the curve) [2]: ~2 nM | EC50 (read off the curve) [9]: ~2 nM
